Data published in paper PMC12866179, “Oxidized MIF is an Alzheimer’s disease drug target relaying external risk factors to tau pathology” (Cell Reports Medicine, 2025).

Molecular target: T1, recombinant human wild-type macrophage migration inhibitory factor (MIF) (human), P14174
T1 chain: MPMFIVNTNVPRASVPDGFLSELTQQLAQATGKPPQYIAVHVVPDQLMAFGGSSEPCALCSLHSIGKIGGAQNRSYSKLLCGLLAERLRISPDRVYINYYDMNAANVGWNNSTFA
Assay: SEC-MALS; 100 uM MIF (WT or C80W) in 20 mM phosphate buffer, with or without 100 uM PAV-174; TSKgel G2000SWXL, 0.5 mL/min, 25 C; UV 280 nm and miniDawn Treos light scattering
Settings: remark: other sources report otherwise

B1: recombinant human wild-type macrophage migration inhibitory factor (MIF), P14174 1-115 (natural protein)
chain: MPMFIVNTNVPRASVPDGFLSELTQQLAQATGKPPQYIAVHVVPDQLMAFGGSSEPCALCSLHSIGKIGGAQNRSYSKLLCGLLAERLRISPDRVYINYYDMNAANVGWNNSTFA
stoichiometry N: 3
